Positions count from the first letter of the chain named.
T1: human DNA polymerase alpha large subunit, two-hybrid fusion (human, UniProt P09884 1-1462)
T1 construct: DNA polymerase alpha large (catalytic) subunit, human; Two-hybrid fusion; also called HDPa; source: yeast two-hybrid fusion
T1 sequence (looked up): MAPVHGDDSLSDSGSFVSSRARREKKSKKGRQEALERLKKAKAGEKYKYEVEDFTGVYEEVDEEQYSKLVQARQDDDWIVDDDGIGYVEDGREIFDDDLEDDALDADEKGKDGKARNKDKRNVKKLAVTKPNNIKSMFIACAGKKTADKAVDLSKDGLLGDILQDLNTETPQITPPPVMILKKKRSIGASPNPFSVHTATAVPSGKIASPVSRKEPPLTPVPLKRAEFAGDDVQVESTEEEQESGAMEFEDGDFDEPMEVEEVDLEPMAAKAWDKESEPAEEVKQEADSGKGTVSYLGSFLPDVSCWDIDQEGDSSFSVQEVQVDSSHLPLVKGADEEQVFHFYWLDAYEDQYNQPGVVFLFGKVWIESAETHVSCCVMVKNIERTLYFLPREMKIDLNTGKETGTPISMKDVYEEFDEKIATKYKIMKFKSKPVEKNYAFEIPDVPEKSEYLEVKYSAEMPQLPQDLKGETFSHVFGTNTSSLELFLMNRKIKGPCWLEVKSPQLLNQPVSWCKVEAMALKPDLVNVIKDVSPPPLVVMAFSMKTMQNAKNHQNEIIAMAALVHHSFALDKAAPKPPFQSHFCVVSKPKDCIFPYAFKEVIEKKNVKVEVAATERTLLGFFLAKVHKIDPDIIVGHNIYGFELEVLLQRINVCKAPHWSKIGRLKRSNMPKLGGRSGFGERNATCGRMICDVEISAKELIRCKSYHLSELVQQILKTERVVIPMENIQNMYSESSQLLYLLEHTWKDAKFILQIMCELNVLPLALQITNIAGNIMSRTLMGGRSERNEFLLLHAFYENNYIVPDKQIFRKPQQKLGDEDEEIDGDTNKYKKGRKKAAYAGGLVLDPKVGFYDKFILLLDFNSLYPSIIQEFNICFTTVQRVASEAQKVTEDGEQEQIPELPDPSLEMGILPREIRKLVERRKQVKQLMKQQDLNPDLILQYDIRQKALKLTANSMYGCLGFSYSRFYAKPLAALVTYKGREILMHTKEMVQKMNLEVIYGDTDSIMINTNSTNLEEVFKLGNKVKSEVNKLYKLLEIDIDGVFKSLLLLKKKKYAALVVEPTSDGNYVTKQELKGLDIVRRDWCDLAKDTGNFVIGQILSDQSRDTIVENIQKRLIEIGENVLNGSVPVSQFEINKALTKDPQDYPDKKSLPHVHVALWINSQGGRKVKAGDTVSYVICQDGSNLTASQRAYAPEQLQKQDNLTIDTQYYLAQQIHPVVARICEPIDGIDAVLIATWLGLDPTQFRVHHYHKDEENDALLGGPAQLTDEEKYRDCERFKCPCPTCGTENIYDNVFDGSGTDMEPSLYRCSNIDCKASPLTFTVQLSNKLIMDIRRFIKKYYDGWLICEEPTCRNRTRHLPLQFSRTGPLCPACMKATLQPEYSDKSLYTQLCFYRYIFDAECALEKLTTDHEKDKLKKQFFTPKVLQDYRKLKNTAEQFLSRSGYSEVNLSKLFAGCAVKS

T2: human CDC6, two-hybrid fusion in pEG202 (human, UniProt Q99741 1-560)
T2 construct: CDC6, human; clone from A. Dutta, cloned in the BamH1 and Not1 sites of pEG202; also called HuCDC6; hCDC6; source: yeast two-hybrid fusion
T2 sequence (looked up): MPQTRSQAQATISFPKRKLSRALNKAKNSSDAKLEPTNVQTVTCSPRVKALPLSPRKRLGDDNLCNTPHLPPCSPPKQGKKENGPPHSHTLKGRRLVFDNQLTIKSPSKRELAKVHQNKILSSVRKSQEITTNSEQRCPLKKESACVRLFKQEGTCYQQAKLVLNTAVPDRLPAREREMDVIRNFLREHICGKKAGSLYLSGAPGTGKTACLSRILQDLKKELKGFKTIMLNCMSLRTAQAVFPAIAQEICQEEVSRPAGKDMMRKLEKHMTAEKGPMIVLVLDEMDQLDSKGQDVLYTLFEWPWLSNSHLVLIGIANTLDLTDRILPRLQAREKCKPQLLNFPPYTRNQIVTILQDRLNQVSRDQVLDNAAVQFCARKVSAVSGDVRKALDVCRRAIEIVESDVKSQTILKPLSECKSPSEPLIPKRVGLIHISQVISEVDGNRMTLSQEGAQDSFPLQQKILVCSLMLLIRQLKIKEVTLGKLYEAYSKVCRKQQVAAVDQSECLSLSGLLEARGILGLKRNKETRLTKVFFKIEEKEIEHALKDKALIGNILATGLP

T3: Drosophila Cdc6, two-hybrid fusion (Drosophila, UniProt Q9VSM9 1-662)
T3 construct: Cdc6 of Drosophila; construct not described; Two-hybrid fusion; also called DmCdc6; source: yeast two-hybrid fusion
T3 sequence (looked up): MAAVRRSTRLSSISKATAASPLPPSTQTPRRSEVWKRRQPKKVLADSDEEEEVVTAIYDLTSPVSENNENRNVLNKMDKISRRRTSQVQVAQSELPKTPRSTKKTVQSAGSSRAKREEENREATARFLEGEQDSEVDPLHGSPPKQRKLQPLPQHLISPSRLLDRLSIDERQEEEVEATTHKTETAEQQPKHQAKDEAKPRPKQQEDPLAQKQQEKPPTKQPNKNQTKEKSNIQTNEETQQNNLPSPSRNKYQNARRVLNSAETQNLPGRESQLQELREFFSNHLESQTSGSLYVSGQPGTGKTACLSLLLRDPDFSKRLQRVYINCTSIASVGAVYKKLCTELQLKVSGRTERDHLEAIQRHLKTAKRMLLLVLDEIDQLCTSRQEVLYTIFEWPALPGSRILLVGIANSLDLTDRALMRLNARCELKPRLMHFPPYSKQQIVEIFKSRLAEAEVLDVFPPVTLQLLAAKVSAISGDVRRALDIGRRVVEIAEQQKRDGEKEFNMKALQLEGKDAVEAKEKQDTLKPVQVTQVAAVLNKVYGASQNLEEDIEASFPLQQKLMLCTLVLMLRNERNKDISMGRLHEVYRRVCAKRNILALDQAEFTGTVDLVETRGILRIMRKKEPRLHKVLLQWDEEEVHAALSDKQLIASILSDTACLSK

B1: human TTC4, two-hybrid fusion in pJG4.5 (natural protein, UniProt O95801 1-387, looked up)
chain: MEQPGQDPTSDDVMDSFLEKFQSQPYRGGFHEDQWEKEFEKVPLFMSRAPSEIDPRENPDLACLQSIIFDEERSPEEQAKTYKDEGNDYFKEKDYKKAVISYTEGLKKKCADPDLNAVLYTNRAAAQYYLGNFRSALNDVTAARKLKPCHLKAIIRGALCHLELKHFAEAVNWCDEGLQIDAKEKKLLEMRAKADKLKRIEQRDVRKANLKEKKERNQNEALLQAIKARNIRLSEAACEDEDSASEGLGELFLDGLSTENPHGARLSLDGQGRLSWPVLFLYPEYAQSDFISAFHEDSRFIDHLMVMFGETPSWDLEQKYCPDNLEVYFEDEDRAELYRVPAKSTLLQVLQHQRYFVKALTPAFLVCVGSSPFCKNFLRGRKVYQIR
notes: TTC4 (tetratricopeptide repeat protein 4), human; full length gene, insert amplified and cloned in the EcoR1 and Xho sites of pJG4.5; source: yeast two-hybrid fusion
B2: TTC4-230AC (77EA), two-hybrid fusion in pJG4.5 (natural protein, human, UniProt O95801 1-387, looked up)
chain: B1 chain with E77A
notes: TTC4, human, with a point mutation reported in melanoma samples, made by site-directed mutagenesis in TTC4 (pJG4.5); also called TTC4 codon 77 E to A; source: yeast two-hybrid fusion
B3: TTC4-651-TA (217NK), two-hybrid fusion in pJG4.5 (natural protein, human, UniProt O95801 1-387, looked up)
chain: B1 chain with N217K
notes: TTC4, human, with a point mutation reported in melanoma samples, made by site-directed mutagenesis in TTC4 (pJG4.5); also called TTC4 codon 217 N to K; source: yeast two-hybrid fusion
B4: TTC4-125TA (42VD), two-hybrid fusion in pJG4.5 (natural protein, human, UniProt O95801 1-387, looked up)
chain: B1 chain with V42D
notes: TTC4, human, with a point mutation reported in melanoma samples, made by site-directed mutagenesis in TTC4 (pJG4.5); also called TTC4 codon 42 V to D; source: yeast two-hybrid fusion
B5: TTC4-201TG (67IM), two-hybrid fusion in pJG4.5 (natural protein, human, UniProt O95801 1-387, looked up)
chain: B1 chain with I67M
notes: TTC4, human, with a point mutation reported in melanoma samples, made by site-directed mutagenesis in TTC4 (pJG4.5); also called TTC4 codon 67 I to M; source: yeast two-hybrid fusion

Target: T1, human DNA polymerase alpha large …
Assay: two-hybrid; quantitative liquid beta-galactosidase assays; values as a percentage of the cdc6/TTC4 interaction
Conditions: partners not purified

Binder	two-hybrid beta-galactosidase, percentage of the cdc6/TTC4 interaction [%]
B1	< 5

Target: T4, human HSP90 protein 1 beta (HSPCB), two-hybrid fusion in pEG202 (human, UniProt P08238 1-724)
T4 construct: HSP90 protein 1 beta (HSPCB), human full length cDNA clone from Origene, cloned in the Not1 and Xho1 sites of pEG202; also called HuHSP90; huHSP90; source: yeast two-hybrid fusion
Assay: as above
Conditions: partners not purified

T4 sequence (P08238 whole entry, the tested form may be a part): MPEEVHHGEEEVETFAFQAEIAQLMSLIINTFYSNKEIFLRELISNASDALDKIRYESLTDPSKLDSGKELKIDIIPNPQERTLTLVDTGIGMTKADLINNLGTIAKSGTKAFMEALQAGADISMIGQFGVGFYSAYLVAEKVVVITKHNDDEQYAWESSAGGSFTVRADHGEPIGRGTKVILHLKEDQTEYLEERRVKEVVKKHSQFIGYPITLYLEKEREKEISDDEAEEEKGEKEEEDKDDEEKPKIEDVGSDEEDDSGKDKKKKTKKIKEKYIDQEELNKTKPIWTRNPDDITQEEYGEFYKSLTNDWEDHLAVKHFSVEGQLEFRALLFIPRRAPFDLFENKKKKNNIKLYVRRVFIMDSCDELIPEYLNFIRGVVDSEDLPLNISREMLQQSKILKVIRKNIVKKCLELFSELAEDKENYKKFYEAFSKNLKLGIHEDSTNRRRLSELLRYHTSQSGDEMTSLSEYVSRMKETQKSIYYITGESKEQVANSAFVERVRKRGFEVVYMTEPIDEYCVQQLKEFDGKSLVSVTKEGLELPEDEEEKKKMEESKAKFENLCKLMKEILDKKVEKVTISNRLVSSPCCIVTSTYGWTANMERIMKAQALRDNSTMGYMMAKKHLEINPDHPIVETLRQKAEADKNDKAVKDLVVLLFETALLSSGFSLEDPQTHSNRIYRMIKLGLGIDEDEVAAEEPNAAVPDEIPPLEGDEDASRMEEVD

Binder	two-hybrid beta-galactosidase, percentage of the cdc6/TTC4 interaction [%]
B1	100
B2	75
B3	90
B4	80
B5	90

Target: T5, human HSP70 protein 8 (HSPA8), two-hybrid fusion in pEG202 (human, UniProt P11142 1-646)
T5 construct: HSP70 protein 8 (HSPA8), human full length cDNA clone from Origene, cloned in the BamH1 and Xho1 sites of pEG202; also called HuHSP70; source: yeast two-hybrid fusion
Assay: as above
Conditions: partners not purified

T5 sequence (P11142 whole entry, the tested form may be a part): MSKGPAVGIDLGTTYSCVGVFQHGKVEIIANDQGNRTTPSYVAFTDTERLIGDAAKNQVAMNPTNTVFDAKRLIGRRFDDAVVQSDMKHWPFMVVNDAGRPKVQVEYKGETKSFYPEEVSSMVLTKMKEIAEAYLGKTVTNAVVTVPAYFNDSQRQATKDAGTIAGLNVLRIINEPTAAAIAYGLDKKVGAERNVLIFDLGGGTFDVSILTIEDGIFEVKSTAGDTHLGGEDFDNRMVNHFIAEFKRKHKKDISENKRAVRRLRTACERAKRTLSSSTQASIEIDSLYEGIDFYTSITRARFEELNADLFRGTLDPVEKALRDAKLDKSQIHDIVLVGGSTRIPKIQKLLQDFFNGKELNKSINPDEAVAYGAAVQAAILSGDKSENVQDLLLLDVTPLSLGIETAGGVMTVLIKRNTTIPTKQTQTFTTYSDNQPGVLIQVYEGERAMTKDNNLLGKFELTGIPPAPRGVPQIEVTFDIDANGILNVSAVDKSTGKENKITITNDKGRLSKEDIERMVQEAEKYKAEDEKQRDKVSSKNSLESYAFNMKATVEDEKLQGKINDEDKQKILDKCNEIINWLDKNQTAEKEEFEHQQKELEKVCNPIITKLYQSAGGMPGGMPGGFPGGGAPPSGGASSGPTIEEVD

Binder	two-hybrid beta-galactosidase, percentage of the cdc6/TTC4 interaction [%]
B1	80
B2	70
B3	70
B4	65
B5	70

Target: T2, human CDC6, two-hybrid fusion in pEG202
Assay: as above
Conditions: partners not purified

Binder	two-hybrid beta-galactosidase, percentage of the cdc6/TTC4 interaction [%]
B1	100
B2	< 5
B3	< 5
B4	95
B5	95

Target: T6, Drosophila Hsp90, two-hybrid fusion (Drosophila, UniProt P02828 1-717)
T6 construct: Hsp90 (Hsp83) of Drosophila; construct not described; Two-hybrid fusion; also called DmHsp90; source: yeast two-hybrid fusion
Assay: two-hybrid; TTC4 with Drosophila proteins; data not shown
Conditions: partners not purified

T6 sequence (P02828 whole entry, the tested form may be a part): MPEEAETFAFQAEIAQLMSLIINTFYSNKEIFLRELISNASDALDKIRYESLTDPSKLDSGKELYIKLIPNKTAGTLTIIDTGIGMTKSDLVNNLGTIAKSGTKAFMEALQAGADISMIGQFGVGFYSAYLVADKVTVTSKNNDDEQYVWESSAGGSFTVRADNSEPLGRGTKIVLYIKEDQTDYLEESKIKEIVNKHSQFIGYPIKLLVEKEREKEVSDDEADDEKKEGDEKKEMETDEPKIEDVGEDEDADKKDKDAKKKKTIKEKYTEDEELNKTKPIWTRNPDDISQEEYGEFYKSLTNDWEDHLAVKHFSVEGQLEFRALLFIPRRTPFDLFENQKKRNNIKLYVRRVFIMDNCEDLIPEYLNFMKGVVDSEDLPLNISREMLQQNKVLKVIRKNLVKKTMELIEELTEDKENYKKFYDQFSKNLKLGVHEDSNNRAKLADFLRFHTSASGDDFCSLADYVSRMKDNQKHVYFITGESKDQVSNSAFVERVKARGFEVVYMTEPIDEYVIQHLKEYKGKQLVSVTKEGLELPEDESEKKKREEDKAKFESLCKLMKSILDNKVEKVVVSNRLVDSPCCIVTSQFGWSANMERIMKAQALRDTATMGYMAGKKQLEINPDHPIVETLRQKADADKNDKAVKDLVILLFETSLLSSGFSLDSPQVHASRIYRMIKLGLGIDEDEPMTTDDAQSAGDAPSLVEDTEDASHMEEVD

Binder	two-hybrid strength relative to TTC4 with huHSP90 [%]
B1	50

Target: T3, Drosophila Cdc6, two-hybrid fusion
Assay: as above
Conditions: partners not purified

Binder	two-hybrid strength relative to TTC4 with human CDC6 [%]
B1	50

From paper PMC2253824, “The Human TPR Protein TTC4 Is a Putative Hsp90 Co-Chaperone Which Interacts with CDC6 and Shows Alterations in Transformed Cells” (PLoS ONE, 2008)
